# Measurements: the RNAGym collection of RNA variant scans (doi:10.1073/pnas.2313332121)
# This sample holds only a part of the variants without activity.
# B1: TPR 5TU (parent)
# chain: GGAUCUUCUCGAUCUAACAAAAAAGACAAAUCUGCCACAAAGCUUGAGAGCAUCUUCGGAUGCAGAGGCGGCAGCCUUCGGUGGCGCGAUAGCGCCAACGUUCUCAACUAUGACACGCAAAACGCGUGCUCCGUUGAAUGGAGUUUAUCAUG
# Variants of: B1
# Assay: polymerase ribozyme fitness, log enrichment relative to wild type (log ratio); higher = more active; in vitro selection for triplet polymerase activity
# How it was run: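 Genotype fitness is the logarithm of its enrichment divided by wild-type enrichment, using inverse-variance-weighted averages of replicates. That logarithm is base 2. Enrichment was measured by Illumina sequencing of input and output libraries from one triplicate in vitro selection round, with frozen incubation at −7 °C, on PCR-built, transcribed mutant libraries of each subunit of a heterodimeric triplet polymerase ribozyme, retaining genotypes with ≥10 input reads and ≥1 read per output.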
row,Variant,polymerase ribozyme fitness (log ratio)
1,C38A U148A,-4.04
2,A37G A47C G100U G143A,≤ -4.2
3,C38U A60U C87U C95G U135A,≤ -4.2
4,C38A C43A U55A C87U G117A,≤ -4.2
5,C38U U53A C105U,0.169
6,A37G C96U C105G,-3.63
7,C38U C79U A121U C125A G143U,-3.92
8,C38U G50A A52U G68U G80A A97G A137U,≤ -4.2
9,A37U,-1.11
10,A37G,-1.24
11,A37G G94A,-1.49
12,C38G A40G G83A,-3.86
13,C38U A47C A64C U78G G84C A97C C108U,≤ -4.2
14,C38G G140C,-4.11
15,C38U U45A G92C,-4.13
16,C38U C93G C125A,-3.39
17,C38G U56A G86U U130A,≤ -4.2
18,A37G G58A G92C G140U,≤ -4.2
19,C38A C85A U144C,-0.839
20,C38A U55G A60G,0.135
21,C38A U55A G94U C99G,-3.88

row,Variant,polymerase ribozyme fitness (log ratio)
1,C38U C57A G143C,-2.41
2,C38A U56A G74C G92U U109G,≤ -4.2
3,C38U C87U A115U C125U,-3.34
4,A37U G68U C118A,≤ -4.2
5,A37G A73U G94A A97C G124A,≤ -4.2
6,A39C A40C A41C G42C G46U G59C C87A U90G U127G G152U,≤ -4.2
7,C38U C76U G81C,-0.0752
8,C38A C93G C96U A115G G117A,≤ -4.2
9,C38A U53A C63U G80A C95A,≤ -4.2
10,A37U U134G,-2.86
11,C38U A40C G80U C95U,-1.06
12,C38U C85A G117C,-0.0326
13,A37G C54A G141A,-2.78
14,A39C A40C A49C,≤ -4.2
15,A37U G59C C149G,≤ -4.2
16,C38U C72U C95G,-0.675
17,C38U U148C,-1.36
18,C38A C85G G86U,≤ -4.2
19,C38U C95A C108U,-3.39
20,A37G A97G A98G,-2.55
21,C38U C87U C95U U144A,-1.21

row,Variant,polymerase ribozyme fitness (log ratio)
1,C38A A73C C75G A120C,≤ -4.2
2,C38U G94U,-0.0168
3,A37G C95U,-2.43
4,C38U A40C G81A A91G C125G,-3.83
5,C38U C63U A73G C87U,-0.21
6,A37G A52C A97C,-3.67
7,A37U U45A G46C C85U C105U U144A,≤ -4.2
8,C38U G50U U56A G74U C75G C125U U139A,≤ -4.2
9,C38A C76A G92U G136A G152U,≤ -4.2
10,A37U C38U C76G C93U C96A C118U G143U,≤ -4.2
11,C38U A73G C87U,0.139
12,A37G U78A C93G C116U,≤ -4.2
13,A37U A49C C63G C87G G124U,≤ -4.2
14,A37U G83C A91C A98G G124U,≤ -4.2
15,C38U U55G G84C A98U,-1
16,A37U A64U,≤ -4.2
17,C38U G86U C118U,-2.07
18,C38U C76G,≤ -4.2
19,A37G U56A G84A C85U G133C,-4.13
20,C38G C43U G81U G86U A98G C103G A150G U151C,≤ -4.2
21,A37G A52C C95U A98C,-3.46

row,Variant,polymerase ribozyme fitness (log ratio)
1,C38U A120U,-0.54
2,C38A U55A A106C G117A U146A,-1.67
3,C38U U82C C85U U90G C99U C105U C108G A120G,≤ -4.2
4,A37G A64G G80A G88U G143A,≤ -4.2
5,C38G G92A C105G,≤ -4.2
6,A37U G86U,-3.44
7,A37G C51U A66U G83A U151G,≤ -4.2
8,C38U U56A A147C,-0.21
9,C38G U56A G94A A121G,-1.64
10,C38U G46A C95A,-0.705
11,C38A G42C U55G C69U U90G U146C,≤ -4.2
12,C38A C76U A110G A113G G152A,≤ -4.2
13,C38A U56G C93G C95A,≤ -4.2
14,C38A A47C C96A,-1.63
15,A37G U55A A66G C75U C85A A122U,≤ -4.2
16,C38U G83C,-0.262
17,C38U U55A A60G C75G C76G A115U A122U C125G,≤ -4.2
18,C38U A106U U145C,-1.24
19,C38U A40U C116U U135A,0.399
20,A37U U55G A60G C85G A107C C131U,≤ -4.2
21,A37U A47C C85U C95U A113C U148A G152U,≤ -4.2
